The source of these data is paper PMC6363454 (The Journal of Cell Biology, 2019).

Data set [1] concerns the molecule itself. Briefly: cryo-EM structure.
Data set [2] concerns the molecule itself. Briefly: cryo-EM structure. The source holds these as a separate data set.

Where two headings read alike, the source gives them in different places.

B1: Dam1C/DASH heterodecamer (recombinant) (complex, S. cerevisiae)
chain 1: MSEDKAKLGTTRSATEYRLSIGSAPTSRRSSMGESSSLMKFADQEGLTSSVGEYNENTIQQLLLPKIRELSDSIITLDSNFTRLNFIHESLADLNESLGSLLYGIMSNSWCVEFSQAPHDIQDDLIAIKQLKSLEDEKNNLVMELSNMERGIKRKKDEQGENDLAKASQNKQFNQPLFPSSQVRKYRSYDNRDKRKPSKIGNNLQVENEEDYEDDTSSEASFVLNPTNIGMSKSSQGHVTKTTRLNNNTNSKLRRKSILHTIRNSIASGADLPIENDNVVNLGDLHPNNRISLGSGAARVVNGPVTKNRNSMFSGRAERKPTESRHSVAKKTEKKINTRPPFR
chain 2: MMASTSNDEEKLISTTDKYFIEQRNIVLQEINETMNSILNGLNGLNISLESSIAVGREFQSVSDLWKTLYDGLESLSDEAPIDEQPTLSQSKTK
chain 3: MDSIDEQIAIKRKELQSLQKITSLTDGLKIQLTELNEQIKEMGMNADSVAQLMNNWDSIINNISQASLGLLQYAEGDYEIGPWKDSKKKESEQSNETGLEAQENDKNDEDNDEDEDLVPLPETMVRIRVDGNE
chain 4: MEHNLSPLQQEVLDKYKQLSLDLKALDETIKELNYSQHRQQHSQQETVSPDEILQEMRDIEVKIGLVGTLLKGSVYSLILQRKQEQESLGSNSK
chain 5: MENPHEQVQANILSRIIGNVKRLNESVAILNQELVTINNRNKNLEIMGAICDNYHSSVQFNLEATNNKKPPL
chain 6: MSEQSQLDDSTIDKLIPQIFNEMRSNLNNTTNKFPKSTGGGASDNISANSNSIRSFNSITTQSLLKESESLDKITAMIKNVTAALKNNLPVYVNQVHEVCKSTNSILDSWINIHSQAGYIHKLMSDQTYLKLINDRLHNENVNTNDEDGSTLHNVIALKKKEILDLRQKLENRKGEKDAAPAKPPNQGLNPRYGVQSGRRPVPSAGISNNGRVRKTHVPASKRPSGIPRVTNRWTKPTASSSRKMFR
chain 7: MDSASKEETLEKLDQEITVNLQKIDSNLSFCFHKITQDIIPHVATYSEICERIMDSTEWLGTMFQETGLVNLQANAAAPVGNAPVKSLVSNNVGIFPTSAEEASRQSQTDNGPNEADSAVHVNRDVHSMFNNDSIDDFHTANITSTGQILKLPDSSDEDTGSEAVPSREQTDLTGEGHGGADDEQDESTIQRQSRKRKISLLLQQQYGSSSSMVPSPIVPNKMRKQLAHEEHINNDGDNDDENSNNIESSPLKQGHHHPKGQADDNNEGPDEEESTKEVPKPGTIIHFSTNR
chain 8: MTDALEQSVLALEGTVSVLKDSVESLKCANEPSTNLASTMLQTKRVFRLVPEYDVERSKLDLIEEVEPLVRTLGDKLRKSMGRMQRELDTLQQTYELNDLRLKKNISMDDDDALNSPDMGQEYEGRDADDVVMMASSTNEELEELKKLKEKKKQLENKLEILKQK
chain 9: MGESLDRCIDDINRAVDSMSTLYFKPPGIFHNAILQGASNKASIRKDITRLIKDCNHDEAYLLFKVNPEKQSVSRRDGKEGVFDYVIKRDTDMKRNRRLGRPGEKPIIHVPKEVYLNKDRLDLNNKRRRTATTSGGGLNGFIFDTDLIGSSVISNSSSGTFKALSAVFKDDPQIQRLLYALENGSVLMEEESNNQRRKTIFVEDFPTDLILKVMAEVTDLWPLTEFKQDYDQLYHNYEQLSSKLRFIKKEVLLQDDRLKTMSQYHPSSSHDVAKIIRKEKDEIRRLEMEIANLQE
chain 10: MNANKQRQYNQLAHELRELQTNLQETTKQLDIMSKQCNENLVGQLGKVHGSWLIGSYIYYMEQMLGKTQ
B1: the “stoichiometry N” value in the data set “cryo-EM structure [1]” stood at 17.

B2: Dam1C/DASH outer kinetochore complex in yeast cells (in vivo) (complex)
chain 1: B1 chain 1
chain 2: B1 chain 2
chain 3: B1 chain 3
chain 4: B1 chain 4
chain 5: B1 chain 5
chain 6: B1 chain 6
chain 7: B1 chain 7
chain 8: B1 chain 8
chain 9: B1 chain 9
chain 10: B1 chain 10
Consider B2, for which the “stoichiometry N” value in “cryo-EM structure [2]” came out at 17.

Broadly, the stoichiometry N is a count of units in the complex or per binding partner.
